Measured values reported in patent US20110091994A1, “Methods for Screening Compounds for Treating and/or Preventing an Hepatitis C Virus Infection” (priority 2008, published 2011).

B1: FUCA2 (protein, UniProt Q9BTY2 29-467, looked up)
Plasma alpha-L-fucosidase: HSATRFDPTWESLDARQLPAWFDQAKFGIFIHWGVFSVPSFGSEWFWWYWQKEKIPKYVEFMKDNYPPSFKYEDFGPLFTAKFFNANQWADIFQASGAKYIVLTSKHHEGFTLWGSEYSWNWNAIDEGPKRDIVKELEVAIRNRTDLRFGLYYSLFEWFHPLFLEDESSSFHKRQFPVSKTLPELYELVNNYQPEVLWSDGDGGAPDQYWNSTGFLAWLYNESPVRGTVVTNDRWGAGSICKHGGFYTCSDRYNPGHLLPHKWENCMTIDKLSWGYRREAGISDYLTIEELVKQLVETVSCGGNLLMNIGPTLDGTISVVFEERLRQMGSWLKVNGEAIYETHTWRSQNDTVTPDVWYTSKPKEKLVYAIFLKWPTSGQLFLGHPKAILGATEVKLLGHGQPLNWISLEQNGIMVELPQLTIHQMPCKWGWALALTNVI
B2: FBLN1 (protein, UniProt P23142 30-703, looked up)
Fibulin-1: DVLLEACCADGHRMATHQKDCSLPYATESKECRMVQEQCCHSQLEELHCATGISLANEQDRCATPHGDNASLEATFVKRCCHCCLLGRAAQAQGQSCEYSLMVGYQCGQVFQACCVKSQETGDLDVGGLQETDKIIEVEEEQEDPYLNDRCRGGGPCKQQCRDTGDEVVCSCFVGYQLLSDGVSCEDVNECITGSHSCRLGESCINTVGSFRCQRDSSCGTGYELTEDNSCKDIDECESGIHNCLPDFICQNTLGSFRCRPKLQCKSGFIQDALGNCIDINECLSISAPCPIGHTCINTEGSYTCQKNVPNCGRGYHLNEEGTRCVDVDECAPPAEPCGKGHRCVNSPGSFRCECKTGYYFDGISRMCVDVNECQRYPGRLCGHKCENTLGSYLCSCSVGFRLSVDGRSCEDINECSSSPCSQECANVYGSYQCYCRRGYQLSDVDGVTCEDIDECALPTGGHICSYRCINIPGSFQCSCPSSGYRLAPNGRNCQDIDECVTGIHNCSINETCFNIQGGFRCLAFECPENYRRSAATLQQEKTDTVRCIKSCRPNDVTCVFDPVHTISHTVISLPTFREFTRPEEIIFLRAITPPHPASQANIIFDITEGNLRDSFDIIKRYMDGMTVGVVRQVRPIVGPFHAVLKLEMNYVVGGVVSHRNVVNVHIFVSEYWF
B3: FRMPD4 (protein, UniProt Q14CM0 1-1322, looked up)
FERM and PDZ …: MDVFSFVKIAKLSSHRTKSSGWPPPSGTWGLSQVPPYGWEMTANRDGRDYFINHMTQAIPFDDPRLESCQIIPPAPRKVEMRRDPVLGFGFVAGSEKPVVVRSVTPGGPSEGKLIPGDQIVMINDEPVSAAPRERVIDLVRSCKESILLTVIQPYPSPKSAFISAAKKARLKSNPVKVRFSEEVIINGQVSETVKDNSLLFMPNVLKVYLENGQTKSFRFDCSTSIKDVILTLQEKLSIKGIEHFSLMLEQRTEGAGTKLLLLHEQETLTQVTQRPSSHKMRCLFRISFVPKDPIDLLRRDPVAFEYLYVQSCNDVVQERFGPELKYDIALRLAALQMYIATVTTKQTQKISLKYIEKEWGLETFLPSAVLQSMKEKNIKKALSHLVKANQNLVPPGKKLSALQAKVHYLKFLSDLRLYGGRVFKATLVQAEKRSEVTLLVGPRYGISHVINTKTNLVALLADFSHVNRIEMFSEEESLVRVELHVLDVKPITLLMESSDAMNLACLTAGYYRLLVDSRRSIFNMANKKNTATQETGPENKGKHNLLGPDWNCIPQMTTFIGEGEQEAQITYIDSKQKTVEITDSTMCPKEHRHLYIDNAYSSDGLNQQLSQPGEAPCEADYRSLAQRSLLTLSGPETLKKAQESPRGAKVSFIFGDFALDDGISPPTLGYETLLDEGPEMLEKQRNLYIGSANDMKGLDLTPEAEGIQFVENSVYANIGDVKSFQAAEGIEEPLLHDICYAENTDDAEDEDEVSCEEDLVVGEMNQPAILNLSGSSDDIIDLTSLPPPEGDDNEDDFLLRSLNMAIAAPPPGFRDSSDEEDSQSQAASFPEDKEKGSSLQNDEIPVSLIDAVPTSAEGKCEKGLDNAVVSTLGALEALSVSEEQQTSDNSGVAILRAYSPESSSDSGNETNSSEMTESSELATAQKQSENLSRMFLATHEGYHPLAEEQTEFPASKTPAGGLPPKSSHALAARPATDLPPKVVPSKQLLHSDHMEMEPETMETKSVTDYFSKLHMGSVAYSCTSKRKSKLADGEGKAPPNGNTTGKKQQGTKTAEMEEEASGKFGTVSSRDSQHLSTFNLERTAFRKDSQRWYVATEGGMAEKSGLEAATGKTFPRASGLGAREAEGKEEGAPDGETSDGSGLGQGDRFLTDVTCASSAKDLDNPEDADSSTCDHPSKLPEADESVARLCDYHLAKRMSSLQSEGHFSLQSSQGSSVDAGCGTGSSGSACATPVESPLCPSLGKHLIPDASGKGVNYIPSEERAPGLPNHGATFKELHPQTEGMCPRMTVPALHTAINTEPLFGTLRDGCHRLPKIKETTV
B4: FES (protein, UniProt P07332 1-822, looked up)
Tyrosine-protein kinase …: MGFSSELCSPQGHGVLQQMQEAELRLLEGMRKWMAQRVKSDREYAGLLHHMSLQDSGGQSRAISPDSPISQSWAEITSQTEGLSRLLRQHAEDLNSGPLSKLSLLIRERQQLRKTYSEQWQQLQQELTKTHSQDIEKLKSQYRALARDSAQAKRKYQEASKDKDRDKAKDKYVRSLWKLFAHHNRYVLGVRAAQLHHQHHHQLLLPGLLRSLQDLHEEMACILKEILQEYLEISSLVQDEVVAIHREMAAAAARIQPEAEYQGFLRQYGSAPDVPPCVTFDESLLEEGEPLEPGELQLNELTVESVQHTLTSVTDELAVATEMVFRRQEMVTQLQQELRNEEENTHPRERVQLLGKRQVLQEALQGLQVALCSQAKLQAQQELLQTKLEHLGPGEPPPVLLLQDDRHSTSSSEQEREGGRTPTLEILKSHISGIFRPKFSLPPPLQLIPEVQKPLHEQLWYHGAIPRAEVAELLVHSGDFLVRESQGKQEYVLSVLWDGLPRHFIIQSLDNLYRLEGEGFPSIPLLIDHLLSTQQPLTKKSGVVLHRAVPKDKWVLNHEDLVLGEQIGRGNFGEVFSGRLRADNTLVAVKSCRETLPPDLKAKFLQEARILKQYSHPNIVRLIGVCTQKQPIYIVMELVQGGDFLTFLRTEGARLRVKTLLQMVGDAAAGMEYLESKCCIHRDLAARNCLVTEKNVLKISDFGMSREEADGVYAASGGLRQVPVKWTAPEALNYGRYSSESDVWSFGILLWETFSLGASPYPNLSNQQTREFVEKGGRLPCPELCPDAVFRLMEQCWAYEPGQRPSFSTIYQELQSIRKRHR
B5: FIGNL1 (protein, UniProt Q6PIW4 1-674, looked up)
Fidgetin-like protein 1: MQTSSSRSVHLSEWQKNYFAITSGICTGPKADAYRAQILRIQYAWANSEISQVCATKLFKKYAEKYSAIIDSDNVESGLNNYAENILTLAGSQQTDSDKWQSGLSINNVFKMSSVQKMMQAGKKFKDSLLEPALASVVIHKEATVFDLPKFSVCGSSQESDSLPNSAHDRDRTQDFPESNRLKLLQNAQPPMVTNTARTCPTFSAPVGESATAKFHVTPLFGNVKKENHSSAKENIGLNVFLSNQSCFPAACENPQRKSFYGSGTIDALSNPILNKACSKTEDNGPKEDSSLPTFKTAKEQLWVDQQKKYHQPQRASGSSYGGVKKSLGASRSRGILGKFVPPIPKQDGGEQNGGMQCKPYGAGPTEPAHPVDERLKNLEPKMIELIMNEIMDHGPPVNWEDIAGVEFAKATIKEIVVWPMLRPDIFTGLRGPPKGILLFGPPGTGKTLIGKCIASQSGATFFSISASSLTSKWVGEGEKMVRALFAVARCQQPAVIFIDEIDSLLSQRGDGEHESSRRIKTEFLVQLDGATTSSEDRILVVGATNRPQEIDEAARRRLVKRLYIPLPEASARKQIVINLMSKEQCCLSEEEIEQIVQQSDAFSGADMTQLCREASLGPIRSLQTADIATITPDQVRPIAYIDFENAFRTVRPSVSPKDLELYENWNKTFGCGK

Legend:
[1] = tested on: HCV ORFs (Gal4-DB fusions); type: binding, HCV genotype 1b, isolate con1; settings: human protein listed by gene symbol; the value names the HCV protein it interacts with
[2] = molecular target: T1, HCV ORFs (Gal4-DB fusions) (Hepatitis C virus genotype 1b, UniProt Q9WMX2); type: binding, HCV genotype 1b, isolate con1; settings: HCV protein NS3 as bait; human protein as prey
T1 construct: expressed in transfected cells; host or cells: Saccharomyces cerevisiae MAV203 (IMAP1) / AH109 (IMAP2)
T1 sequence (Q9WMX2 1027-1657): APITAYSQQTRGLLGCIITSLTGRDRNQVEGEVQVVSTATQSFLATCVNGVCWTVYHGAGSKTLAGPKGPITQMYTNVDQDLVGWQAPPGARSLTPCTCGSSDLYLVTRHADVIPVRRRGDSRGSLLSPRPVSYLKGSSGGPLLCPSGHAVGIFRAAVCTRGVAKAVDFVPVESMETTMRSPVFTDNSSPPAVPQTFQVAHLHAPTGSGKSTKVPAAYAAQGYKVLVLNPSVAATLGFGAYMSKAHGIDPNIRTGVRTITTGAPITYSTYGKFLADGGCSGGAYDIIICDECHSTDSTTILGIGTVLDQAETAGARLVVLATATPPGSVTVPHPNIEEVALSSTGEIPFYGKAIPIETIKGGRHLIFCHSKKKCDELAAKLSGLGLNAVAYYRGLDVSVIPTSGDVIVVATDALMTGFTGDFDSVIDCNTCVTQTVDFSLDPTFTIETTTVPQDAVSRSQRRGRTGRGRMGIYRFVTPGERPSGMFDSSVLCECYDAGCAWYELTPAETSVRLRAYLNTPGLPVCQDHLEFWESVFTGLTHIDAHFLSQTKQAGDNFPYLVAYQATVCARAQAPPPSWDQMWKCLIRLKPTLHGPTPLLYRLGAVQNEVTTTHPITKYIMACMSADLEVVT

HCV proteins = molecular target: T2, HCV proteins (Hepatitis C virus genotype 1b, UniProt Q9WMX2); experiment: Validation by Y2H pairwise matrices; type: binding; settings: validation of interaction with HCV protein NS3;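 further: yeast two-hybrid pairwise tests of interactions first found in Y2H screens of HCV bait proteins against human cDNA libraries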
T2 construct: expressed in transfected cells
T2 sequence (Q9WMX2 1027-1657): as above
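Wherever IMAP Y2H IMAP1 (number of IST) is given: yeast two-hybrid screens using HCV genotype 1b proteins fused to Gal4-DB as baits against prey cDNA libraries from human spleen and foetal brain, IMAP1 via transformation and IMAP2 via mating.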
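Wherever Interaction with viral protein is given: yeast two-hybrid screens using HCV genotype 1b proteins fused to Gal4-DB as baits against prey cDNA libraries from human spleen and foetal brain, IMAP1 via transformation and IMAP2 via mating.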

| Molecule | Interaction with viral protein [1] | IMAP Y2H IMAP1 (number of IST) [2] | Y2H matrices (HCV proteins) |
| --- | --- | --- | --- |
| B1 | NS3 | 2 | + |
| B2 | NS3 | 8 | + |
| B3 | NS3 | 1 | + |
| B4 | NS3 | 1 | + |
| B5 | NS3 | 1 | + |
